From PMC6156153

Target: recombinant staphylococcal protein A (SpA) (Staphylococcus aureus) (UniProt P02976)
Sequence of UniProt P02976 (P02976 37-485): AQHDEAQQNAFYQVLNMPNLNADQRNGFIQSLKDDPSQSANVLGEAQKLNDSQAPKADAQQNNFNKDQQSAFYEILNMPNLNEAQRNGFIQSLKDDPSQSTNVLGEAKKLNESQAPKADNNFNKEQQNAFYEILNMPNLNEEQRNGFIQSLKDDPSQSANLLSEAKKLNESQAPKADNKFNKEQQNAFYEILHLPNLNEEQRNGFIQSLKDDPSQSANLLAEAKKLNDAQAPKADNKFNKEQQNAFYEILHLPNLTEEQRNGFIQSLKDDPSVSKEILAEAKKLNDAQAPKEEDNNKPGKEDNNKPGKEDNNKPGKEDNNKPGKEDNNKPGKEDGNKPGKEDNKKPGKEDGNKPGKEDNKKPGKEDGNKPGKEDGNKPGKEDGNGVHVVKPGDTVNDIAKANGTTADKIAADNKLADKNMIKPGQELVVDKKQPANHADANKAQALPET

Substance	in vivo depletion of adoptively transferred VHIII (T15i) B cells at 72 h after SpA challenge in muMT mice pretreated with 1 mg of the IgG (told of the IgG3 mAbs together) [% depletion]
recombinant murine VHIII IgG3 (variable regions of the anti-PC TEPC15 clone) (antibody)	60
recombinant murine VHI isotype control IgG3 (antibody genes of the anti-hen egg lysozyme D1.3 mAb)	60
